Read-outs that look alike come from different tables or passages of the source. Bridges are numbered along the chain shown (N, C = ends). Where no end group is shown, it is not given here. [ ]: non-standard residue; d: D form. The star is where a group is joined. FITC = O=C1OC2(c3ccc(O)cc3Oc3cc(O)ccc32)c2ccc(NC(=S)*)cc21; S5 = C=CCCC[C@](C)(N)C(=O)O; Nle = CCCC[C@H](N)C(=O)O

As usually defined, the Kd is the concentration at which binding is half-saturated. Read a high Kd as weaker binding.

Assay [1] has as its target T1, C-terminal His-tagged EED (His-EED) (UniProt O75530 1-441). The experiment in a line: fluorescence polarization. (In general: In fluorescence polarisation assays a small probe gives low polarisation when free and higher when bound to something large.)
Assay [2] addresses T1, C-terminal His-tagged EED (His-EED). The assay can be described thus: fluorescence polarization. The source holds these as a separate data set.
Assay [3] concerns the target purified EED (Example 6) (UniProt O75530 1-441). The assay can be described thus: competitive fluorescence polarization; competition against FITC-EZH2(42-68).

T1 sequence (O75530 whole entry): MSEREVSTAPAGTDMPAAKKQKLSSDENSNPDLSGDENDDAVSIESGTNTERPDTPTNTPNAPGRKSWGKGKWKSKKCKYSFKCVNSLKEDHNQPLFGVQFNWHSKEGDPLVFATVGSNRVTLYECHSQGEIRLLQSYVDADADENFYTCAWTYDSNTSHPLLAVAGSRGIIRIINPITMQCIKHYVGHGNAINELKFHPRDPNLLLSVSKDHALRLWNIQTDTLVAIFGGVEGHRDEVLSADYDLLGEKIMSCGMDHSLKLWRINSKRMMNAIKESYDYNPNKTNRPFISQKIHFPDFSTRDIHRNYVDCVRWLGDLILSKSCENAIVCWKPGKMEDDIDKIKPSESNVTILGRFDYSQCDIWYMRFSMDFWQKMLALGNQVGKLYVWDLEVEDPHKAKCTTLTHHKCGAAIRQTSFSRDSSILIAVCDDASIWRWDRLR
Sequence of purified EED (Example 6) (O75530 whole entry): as above

For the molecule {FITC}-FSSNRQKILERT[S5]ILN[S5]EWKQRRIQPV (staple 13-17) [FITC-SAH-EZH2B(42-68)], the Kd in assay [1] is 528 nM. Take {FITC}-FSSNR[S5]KIL[S5]RTQILNQQWKQRRIQPV (staple 6-10) [FITC-SAH-EZH2A(42-68)E54Q/E59Q]: the Kd in assay [2] was over 10000 nM. The molecule {FITC}-S[Nle]FSSNR[S5]KIL[S5]RTEILNQEWKQRRIQPV (staple 8-12) [FITC-SAH-EZH2A(40-68)] came in with a Kd in assay [1] of 333 nM. {FITC}-FSSNR[S5]KIL[S5]RTQILNQEWKQRRIQPV (staple 6-10) [FITC-SAH-EZH2A(42-68)E54Q] registered a Kd in assay [2] of 320 nM. For the molecule Ac-FSSNR[S5]KIL[S5]RTQILNQEWKQRRIQPV (staple 6-10) [acetyl-SAH-EZH2], binding in assay [3] was put at a Kd of 1130 nM. The same measure, in the same setting: then Ac-FSSNR[S5]KIL[S5]RT[S5]ILN[S5]EWKQRRIQPV (staple 6-10, 13-17) [acetyl-SAH-EZH2(42-68)AC], with 650 nM. {FITC}-FSSNR[S5]KIL[S5]RTEILNQEWKQRRIQPV (staple 6-10) [FITC-SAH-EZH2A(42-68)]: in assay [1], the Kd is 468 nM. In assay [1], {FITC}-S[Nle]FSSNRQKILERT[S5]ILN[S5]EWKQRRIQPV (staple 15-19) [FITC-SAH-EZH2B(40-68)] displayed a Kd of 264 nM.

The values are drawn from patent US20160068834A1 (published 2016).
